Assay results reported in US20250188184A1.
Changes are numbered by the printed parent chain.

B1: CD3.23-L7 (AC3364) (bispecific antibody, V domains shown)
VH: EVQLLESGGGIVQPGGSLKLSCAASGFTFNTYAMNWVRQAPGKGLEWVARIRSKYNNYATYYADSVKDRFTISRDDSKNTVYLQMNNLKTEDTAVYYCVRHENFGNSYVSWFAHWGQGTLVTVSS
VL: ELVVTQEPSLTVSPGGTVTLTCRSSNGAVTSSNYANWVQQKPGQAPRGLIGGTNKRAPGTPARFSGSLLGGKAALTLSGVQPEDEAVYYCALWYPNLWVFGGGTKLTVL
B2: CD3.56 (AC3385) (bispecific antibody, V domains shown)
VH: B1 VH with I51T
VL: B1 VL
B3: CD3.67 (AC3396) (bispecific antibody, V domains shown)
VH: B1 VH with S53T
VL: B1 VL
B4: CD3.86 (AC3415) (bispecific antibody, V domains shown)
VH: B1 VH with Y61E
VL: B1 VL
B5: CD3.38 (AC3367) (bispecific antibody, V domains shown)
VH: B1 VH with W47D
VL: B1 VL
B6: CD3.97 (AC3426) (bispecific antibody, V domains shown)
VH: B1 VH with Y82G
VL: B1 VL
B7: CD3.23-D (AC3366) (bispecific antibody, V domains shown)
VH: B1 VH
VL: B1 VL
B8: CD3.43 (AC3372) (bispecific antibody, V domains shown)
VH: B1 VH with V48S
VL: B1 VL
B9: CD3.96 (AC3425) (bispecific antibody, V domains shown)
VH: B1 VH with Y82D
VL: B1 VL
B10: CD3.75 (AC3404) (bispecific antibody, V domains shown)
VH: B1 VH with Y55W
VL: B1 VL
B11: CD3.83 (AC3412) (bispecific antibody, V domains shown)
VH: B1 VH with A59G
VL: B1 VL
B12: CD3.60 (AC3389) (bispecific antibody, V domains shown)
VH: B1 VH with R52Q
VL: B1 VL
B13: CD3.89 (AC3418) (bispecific antibody, V domains shown)
VH: B1 VH with Y62E
VL: B1 VL
B14: CD3.88 (AC3417) (bispecific antibody, V domains shown)
VH: B1 VH with Y62D
VL: B1 VL
B15: CD3.79 (AC3408) (bispecific antibody, V domains shown)
VH: B1 VH with N57E
VL: B1 VL
B16: CD3.41 (AC3370) (bispecific antibody, V domains shown)
VH: B1 VH with V48E
VL: B1 VL
B17: CD3.85 (AC3414) (bispecific antibody, V domains shown)
VH: B1 VH with Y61D
VL: B1 VL
B18: CD3.92 (AC3421) (bispecific antibody, V domains shown)
VH: B1 VH with Y62W
VL: B1 VL
B19: CD3.69 (AC3398) (bispecific antibody, V domains shown)
VH: B1 VH with Y55A
VL: B1 VL
B20: CD3.87 (AC3416) (bispecific antibody, V domains shown)
VH: B1 VH with Y61T
VL: B1 VL
B21: CD3.45 (AC3374) (bispecific antibody, V domains shown)
VH: B1 VH with V48W
VL: B1 VL
B22: CD3.90 (AC3419) (bispecific antibody, V domains shown)
VH: B1 VH with Y62Q
VL: B1 VL
B23: CD3.100 (AC3429) (bispecific antibody, V domains shown)
VH: B1 VH with N87Q
VL: B1 VL
B24: CD3.68 (AC3397) (bispecific antibody, V domains shown)
VH: B1 VH with K54P
VL: B1 VL
B25: CD3.98 (AC3427) (bispecific antibody, V domains shown)
VH: B1 VH with Y82S
VL: B1 VL
B26: CD3.78 (AC3407) (bispecific antibody, V domains shown)
VH: B1 VH with N57D
VL: B1 VL
B27: CD3.94 (AC3423) (bispecific antibody, V domains shown)
VH: B1 VH with A63P
VL: B1 VL
B28: CD3.74 (AC3403) (bispecific antibody, V domains shown)
VH: B1 VH with Y55T
VL: B1 VL
B29: CD3.54 (AC3383) (bispecific antibody, V domains shown)
VH: B1 VH with I51A
VL: B1 VL
B30: CD3.95 (AC3424) (bispecific antibody, V domains shown)
VH: B1 VH with D68G
VL: B1 VL
B31: CD3.91 (AC3420) (bispecific antibody, V domains shown)
VH: B1 VH with Y62G
VL: B1 VL
B32: CD3.84 (AC3413) (bispecific antibody, V domains shown)
VH: B1 VH with A59T
VL: B1 VL
B33: CD3.73 (AC3402) (bispecific antibody, V domains shown)
VH: B1 VH with Y55P
VL: B1 VL
B34: CD3.102 (AC3431) (bispecific antibody, V domains shown)
VH: B1 VH with N87Y
VL: B1 VL
B35: CD3.80 (AC3409) (bispecific antibody, V domains shown)
VH: B1 VH with Y58G
VL: B1 VL
B36: CD3.101 (AC3430) (bispecific antibody, V domains shown)
VH: B1 VH with N87S
VL: B1 VL
B37: CD3.70 (AC3399) (bispecific antibody, V domains shown)
VH: B1 VH with Y55R
VL: B1 VL
B38: CD3.39 (AC3368) (bispecific antibody, V domains shown)
VH: B1 VH with W47E
VL: B1 VL
B39: CD3.71 (AC3400) (bispecific antibody, V domains shown)
VH: B1 VH with Y55G
VL: B1 VL
B40: CD3.77 (AC3406) (bispecific antibody, V domains shown)
VH: B1 VH with N56E
VL: B1 VL
B41: CD3.44 (AC3373) (bispecific antibody, V domains shown)
VH: B1 VH with V48T
VL: B1 VL
B42: CD3.99 (AC3428) (bispecific antibody, V domains shown)
VH: B1 VH with N87E
VL: B1 VL
B43: CD3.82 (AC3411) (bispecific antibody, V domains shown)
VH: B1 VH with Y58W
VL: B1 VL
B44: CD3.48 (AC3377) (bispecific antibody, V domains shown)
VH: B1 VH with A49G
VL: B1 VL
B45: CD3.42 (AC3371) (bispecific antibody, V domains shown)
VH: B1 VH with V48G
VL: B1 VL
B46: CD3.93 (AC3422) (bispecific antibody, V domains shown)
VH: B1 VH with A63K
VL: B1 VL
B47: CD3.40 (AC3369) (bispecific antibody, V domains shown)
VH: B1 VH with V48A
VL: B1 VL
B48: CD3.72 (AC3401) (bispecific antibody, V domains shown)
VH: B1 VH with Y55K
VL: B1 VL
B49: CD3.81 (AC3410) (bispecific antibody, V domains shown)
VH: B1 VH with Y58F
VL: B1 VL

Biological target: CD3 (target of the Pool 1 CD3.23 screen)
Assay: Octet, crude lysate

Chain of CD3 (target of the Pool 1 CD3.23 screen) (P07766 23-126): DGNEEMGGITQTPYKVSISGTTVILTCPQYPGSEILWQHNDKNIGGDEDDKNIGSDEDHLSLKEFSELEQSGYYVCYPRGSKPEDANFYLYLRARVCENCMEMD

Binder | Kd [nM]
B1 | 8.5
B2 | 425
B3 | 4.8
B4 | 183
B5 | 40.2
B6 | 121
B7 | 14
B8 | 11.2
B9 | 9.8
B10 | 10.5
B11 | 8.2
B12 | 434
B13 | 9.7
B14 | 63.2
B15 | 8.3
B16 | 165
B17 | 939
B18 | 37.2
B19 | 11.5
B20 | 17.9
B21 | 34300
B22 | 7.2
B23 | 7.1
B24 | 51
B25 | 9.6

Binder | Kd [nM]
B26 | 7.4
B27 | 8.2
B28 | 11.1
B29 | 1180
B30 | 5.4
B31 | 8.3
B32 | 10.7
B33 | 33.1
B34 | 5.5
B35 | 11.3
B36 | 4.8
B37 | 3.8
B38 | 18.1
B39 | 20.1
B40 | 575
B41 | 5.7
B42 | 5.9
B43 | 7.8
B44 | 4.5
B45 | 71.5
B46 | 8
B47 | 8.3
B48 | 5.1
B49 | 6.1
